Experimental data: IntAct's records for PubMed 20300064

B1: Rho guanine nucleotide exchange factor 11 (Homo sapiens), O15085 (parent)
chain: MSVRLPQSIDRLSSLSSLGDSAPERKSPSHHRQPSDASETTGLVQRCVIIQKDQHGFGFTVSGDRIVLVQSVRPGGAAMKAGVKEGDRIIKVNGTMVTNSSHLEVVKLIKSGAYVALTLLGSSPSSMGISGLQQDPSPAGAPRITSVIPSPPPPPPLPPPQRITGPKPLQDPEVQKHATQILRNMLRQEEKELQDILPLYGDTSQRPSEGRLSLDSQEGDSGLDSGTERFPSLSESLMNRNSVLSDPGLDSPRTSPVIMARVAQHHRRQGSDAAVPSTGDQGVDQSPKPLIIGPEEDYDPGYFNNESDIIFQDLEKLKSRPAHLGVFLRYIFSQADPSPLLFYLCAEVYQQASPKDSRSLGKDIWNIFLEKNAPLRVKIPEMLQAEIDSRLRNSEDARGVLCEAQEAAMPEIQEQIHDYRTKRTLGLGSLYGENDLLDLDGDPLRERQVAEKQLAALGDILSKYEEDRSAPMDFALNTYMSHAGIRLREARPSNTAEKAQSAPDKDKWLPFFPKTKKSSNSKKEKDALEDKKRNPILKYIGKPKSSSQSTFHIPLSPVEVKPGNVRNIIQHFENNQQYDAPEPGTQRLSTGSFPEDLLESDSSRSEIRLGRSESLKGREEMKRSRKAENVPRSRSDVDMDAAAEATRLHQSASSSTSSLSTRSLENPTPPFTPKMGRRSIESPSLGFCTDTLLPHLLEDDLGQLSDLEPEPDAQNWQHTVGKDVVAGLTQREIDRQEVINELFVTEASHLRTLRVLDLIFYQRMKKENLMPREELARLFPNLPELIEIHNSWCEAMKKLREEGPIIKEISDLMLARFDGPAREELQQVAAQFCSYQSIALELIKTKQRKESRFQLFMQEAESHPQCRRLQLRDLIISEMQRLTKYPLLLESIIKHTEGGTSEHEKLCRARDQCREILKYVNEAVKQTENRHRLEGYQKRLDATALERASNPLAAEFKSLDLTTRKMIHEGPLTWRISKDKTLDLHVLLLEDLLVLLQKQDEKLLLKCHSKTAVGSSDSKQTFSPVLKLNAVLIRSVATDKRAFFIICTSKLGPPQIYELVALTSSDKNTWMELLEEAVRNATRHPGAAPMPVHPPPPGPREPAQQGPTPSRVELDDSDVFHGEPEPEELPGGTGSQQRVQGKHQVLLEDPEQEGSAEEEELGVLPCPSTSLDGENRGIRTRNPIHLAFPGPLFMEGLADSALEDVENLRHLILWSLLPGHTMETQAAQEPEDDLTPTPSVISVTSHPWDPGSPGQAPPGGEGDNTQLAGLEGERPEQEDMGLCSLEHLPPRTRNSGIWESPELDRNLAEDASSTEAAGGYKVVRKAEVAGSKVVPALPESGQSEPGPPEVEGGTKATGNCFYVSMPSGPPDSSTDHSEAPMSPPQPDSLPAGQTEPQPQLQGGNDDPRRPSRSPPSLALRDVGMIFHTIEQLTLKLNRLKDMELAHRELLKSLGGESSGGTTPVGSFHTEAARWTDGSLSPPAKEPLASDSRNSHELGPCPEDGSDAPLEDSTADAAASPGP

Variants of: B1
Conditions: with rhoa_human RHOA

effect of a mutation on the interaction | Variant
decreasing interaction | S748A
decreasing interaction | E741N

Variants of: B1
Conditions: with rhoa_human RHOA
Remark: another data set of the same source

effect of a mutation on the interaction | Variant
disrupting interaction | I876M
disrupting interaction | R872D
disrupting interaction | D873N

Variants of: B1
Conditions: with rhoa_human RHOA
Remark: another data set of the same source

effect of a mutation on the interaction | Variant
disrupting interaction | R868G
disrupting interaction | R867Q
disrupting interaction | L869A

Variants of: B1
Conditions: with rhoa_human RHOA
Remark: another data set of the same source

effect of a mutation on the interaction | Variant
disrupting interaction | E928A
